In patent US20070015695A1 (NATIONAL JEWISH HEALTH, published 2007):

B1: extracellular domain of BCMA (residues 1 to 51 of SEQ ID NO:6), soluble monomer, cleaved from GST-BCMA (receptor)
chain: MLQMAGQCSQNEYFDSLLHACIPCQLRCSSNTPPLTCQRYCNASVTNSVKG
notes: Expressed as a GST fusion in pGEX4T-2 and cleaved from GST with thrombin; also called monomeric BCMA; monomeric BMCA
B2: mutant sTALL-1 with residues 217-224 of SEQ ID NO:2 (flap region) replaced by two glycines (ligand)
chain: AVQGPEETVTQDCLQLIADSETPTIQKGSYTFVPWLLSFKRGSALEEKENKILVKETGYFFIYGQVLYTDKTYAMGHLIQRKKGGSLVTLFRCIQNMPETLPNNSCYSAGIAKLEEGDELQLAIPRENAQISLDGDVTFFGALKLL
notes: Gel filtration gave trimer and monomer peaks and no cluster; Immobilised as 'mutant trimeric sTALL-1' in the BIAcore assay; also called truncated sTALL-1; sTALL-1 217-224; not shown: N-terminal His6 tag; the mutant was overexpressed and purified as the native sTALL-1 and detected with anti-His6 mAb; le
B3: BCMA, entire, overexpressed on transfected 293 cells (receptor)
chain: MLQMAGQCSQNEYFDSLLHACIPCQLRCSSNTPPLTCQRYCNASVTNSVKGTNAILWTCLGLSLIISLAVFVLMFLLRKISSEPLKDEFKNTGSGLLGMANIDLEKSRTGDEIILPRGLEYTVEECTCEDCIKSKPKVDSDHCFPLPAMEEGATILVTTKTNDYCKSLPAALSATEIEKSISAR
notes: also called BCMA-transfected 293 cells; cells that overexpressed entire BCMA
B4: eBCMA, extracellular domain of BCMA (residues 1-52 of SEQ ID NO:6) (receptor)
chain: MLQMAGQCSQNEYFDSLLHACIPCQLRCSSNTPPLTCQRYCNASVTNSVKGT
notes: Residues 5-43 are ordered in the model; Made as a GST fusion and cleaved with thrombin

Experiments:
[1] = biological target: T1, soluble TALL-1 (sTALL-1), amino acids 134-285 of human TALL-1, His6-tagged, wild type (human, UniProt Q9Y275 134-285); assay: BIAcore SPR, sTALL-1 immobilised on CM-5 chip, monomeric BCMA (10-1000 nM) injected, Scatchard analysis of equilibrium binding
T1 construct: Expressed in E. coli; Monomers form trimers, and at pH 7.4 and above a virus-like cluster of 60 monomers (20 trimers); Immobilised as 'wild type multimeric sTALL-1' in the BIAcore assay; also called wild type sTALL-1; native sTALL-1; not shown: N-terminal His6 tag from vector pET14b
Procedure: (§1) The binding affinity of BCMA for the wild type versus mutant sTALL-1 was further determined using BIACore surface plasmon resonance. To obtain the true affinity of the receptor without the confounding effect of multivalent binding, the polyvalent TALL-1 proteins were immobilized in the instrument flow cells and the soluble monomeric BCMA was injected in the mobile phase. The KD of the interaction was calculated by Scatchard analysis of the equilibrium data (data not shown). Briefly, wild type multimeric sTALL-1 and mutant trimeric sTALL-1 were immobilized (11,000 and 3000 RU, respectively) in separate flow cells of a CM-5 BIAcore Biosenser chip using standard amine coupling reagents. Various concentrations (10-1000 nM) of monomeric BMCA were injected for one min at a flow rate of 20 μl/min in a buffer of 100 mMNaCl, 20 mM Tris-HCI pH8.0 and 0.005% P20 detergent and the binding kinetics recording. For base line calculations the same BMCA samples were injected in a control flow cell with no protein immobilized. Receptor binding kinetics were too rapid for accurate measurements of on rates and off rates, but equilibrium binding values (Rmax) were used to calculate the overall affinity of receptor binding by Scatchard analysis.

[2] = biological target: B3; assay: flow cytometry on BCMA-transfected 293 cells, anti-His6 mAb detection
Procedure: (§2) First, BCMA-transfected 293 cells were incubated with control medium, wild type sTALL-1 in the control medium, and mutant sTALL-1 in the control medium. Cell staining was performed by sequential incubation (each 40 min) with anti-His₆ mAb and RPE-conjugated goat […] IgG in staining buffer. The fluorescence was measured by using a Becton Dickinson FACScan flow cytometer (Shu et al., 2000, supra) (data not shown).

[3] = biological target: B1; assay: BIAcore SPR, mutant trimeric sTALL-1 immobilised on CM-5 chip, monomeric BCMA (10-1000 nM) injected, Scatchard analysis of equilibrium binding; mutant trimeric sTALL-1 (flap removed) immobilised, monomeric BCMA injected
Procedure: as §1

[4] = biological target: T1, soluble TALL-1 (sTALL-1), amino acids …; assay: flow cytometry on BCMA-transfected 293 cells, anti-His6 mAb detection
Procedure: as §2

[5] = biological target: T1, soluble TALL-1 (sTALL-1), amino acids …; assay: co-expression, gel filtration at 100 mM to 1 M NaCl and SDS gel analysis, ratio 1:1
Procedure: However, four lines of evidence support the present inventors' belief that the crystal structure described herein reflects the actual interactions of the complexes in solution and in vivo. First, co-expression of sTALL-1 with eBCMA or eBAFF-R generates the virus-like cluster in solution as judged by gel-filtration column and […] analysis at a ratio of 1:1 (sTALL-1: eBCMA or eBAFF-R). Different salt concentrations (from 100 mM to 1 M NaCl) produce the same elution profile, in which complexes of sTALL-1 with eBCMA or eBAFF-R elute at a void volume on superdex-200. Thus, binding between ligand and receptors is stable and insensitive to salt concentrations. Purified samples of the preformed complexes were subjected to crystallization trials. Crystals of both complexes have been obtained, however neither of them diffracted. The results further confirmed that the “flap” region of TALL-1 which is involved in clustering, is not part of the receptor binding site. […] Second, in the receptor soaked sTALL-1 crystals, all seven fully occupied receptors and one partial receptor have equivalent binding sites on sTALL-1 in the asymmetry unit, so the binding is highly specific. Third, eBCMA and eBAFF-R have a similar binding mode and occupy the same site on sTALL-1. […]

B1
Kd [1]: ~100 nM

B2
binding result [2]: binds | Kd [3]: ~100 nM

B3
binding result [4]: binds

B4
binding result [5]: binds
